Experimental data reported in the supplement of paper PMC9170038.

Tested on: MS2 coat protein
Test: apparent KD of MS2 coat protein; designed switch direction (-1 OFF switch, 1 ON switch): -1; higher = weaker reporter binding
Outline: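 Stalled E. coli RNA polymerase transcribed designed RNA switches on Illumina chips, which were then titrated with SNAP-549-labelled MS2 coat protein, doubling from 0.7 or 1.5 nM to 3 µM. Steps lasted from 0.8–1.5 h at the lowest concentration to 10–20 min at the highest. The apparent KD is each design's median over clusters of curve-fitted normalised fluorescence.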

[1] = Eterna round: R95, input ligand: FMN 200 uM
[2] = Eterna round: R95, input ligand: microRNA oligo, concentration not stated
[3] = Eterna round: R95, input ligand: none
[4] = input ligand: microRNA oligo, concentration not stated

Sequence | apparent KD of MS2 coat protein [1] [µM] | apparent KD of MS2 coat protein [2] [µM] | apparent KD of MS2 coat protein [3] [µM] | apparent KD of MS2 coat protein (input ligand: FMN 200 uM) [µM] | apparent KD of MS2 coat protein (input ligand: none) [µM] | apparent KD of MS2 coat protein [4] [µM]
AAGAAACAUGAGGAUCACCCAUGUGAGGAUAUGAUCAAGAAAAGAAAAGAAAGAAGACUCAGAAGGCACAAAGG [salish99-ex1_r3_071] (puzzle: Exclusion 1) | 0.162 | 0.21 | 0.548 | – | – | –
AGUAAGCUAGGAUAUGCUUUGGGAAAGCCUUCCUUCGAUAAACUUGAGGAUCACCCAAGUAGAAGGAGCUAAAU [jl-ex2.4.48 ViennaUCT mod] (Eterna round: R97, puzzle: Exclusion 2) | – | – | – | 0.0167 | 0.016 | –
AAUAACAGAGGAUAUACUAUUUUAUGUGUUUGUUGUUUUAAACAUGAGGAUCACCCAUGUAGAAGGCUGAUUAA [JMF 46] (puzzle: Exclusion 2) | – | 0.0331 | – | – | – | –
UAUAUAUAGUAAGGAUAUGUAUAUAUGUUAUAAACAGAAGGUACUGACAUGAGGAUCACCCAUGUUUUAGUGUGGGCAUGUAGA [JMF's solution 59] (Eterna round: R96, puzzle: Exclusion NG 1) | – | – | – | – | – | 0.0538
GCCGAAAAUGUGAGGAUAUACCUAUGGAUACAUAGGUAGAAGGCACAUGAGGAUCACCCAUGUCUAAUAACGGC [Eli bmx4 4.26] (Eterna round: R97, puzzle: Brourd's mod of Exclusion 4) | – | – | – | 0.521 | 0.212 | –
GCCAGAGCAGGAUAUCUAAUAUCUCACAUGAGGAUCACCCAUGUCCAGCGAAAGCUGGAGGGAGAAGGGCUCUGGC [Fiskers Ex 5 - 10] (puzzle: Exclusion 5) | 0.0343 | 0.0498 | 0.0618 | – | – | –
AGUACUAACACGUUAGUGUUAGUACAAUAAGCUUGUGAAACAUGAGGAUCACCCAUGUCCUCAUAAGCUCGUCUUAU [salish99_TOv2_r3_056] (puzzle: Sensor v3, turn-off variant 2) | 0.0167 | 0.645 | 0.0161 | – | – | –
CUGAGCAGACGGAGAUCCAACAUGAGGAUCACCCAUGUCUCAUAAGCUUUUUGCUCAUCUUAUUGUACCUUGGUGCU [JL ViennaUCT Edcesobi mod 3] (puzzle: Sensor v3, turn-off variant 1) | 0.275 | 0.0144 | 0.323 | – | – | –
AUAACAAGCUUUUUUUUCGUAGUACAUGACGCUCGAGUCACAUGAGGAUCACCCAUGUCUUCCUGUUUGAUUGUUGA [JR_SV3TOV2_Sub058] (puzzle: Sensor v3, turn-off variant 2) | 0.0458 | 0.0547 | 0.0546 | – | – | –
AAGUAUAGAGGAUAUAGUGAGUACUACAUGAGGAUCACCCAUGUUCUUCAAAGCGUAUUUCUAGAAGGCUGUUAAA [EX-5 Malc#18] (puzzle: Exclusion 5) | 0.123 | 0.0487 | 0.0531 | – | – | –
AACUAGGCAGGAUAUACAUGAGGAUCACCCAUGUAAAUUUUUCGUUUAACUUGAAUGUGUAGAAGGGCCAUAAA [Ex3 #52] (Eterna round: R97, puzzle: Exclusion 3) | – | – | – | 0.0233 | 0.0246 | –
UUUAACAAGCCAGAUCCUCACAUGAGGAUCACCCAUGUGCUCGUCUGAUUUUGUACUAUCACGUUUGUGAUAGUGUU [Level Boss var2-07] (puzzle: Sensor v3, turn-off variant 1) | 0.24 | 0.0191 | 0.124 | – | – | –
UAAGUGUGAGGAUAUGGUAAAGAUAGAAUGAUGAAAGAACUCCAGAAGGCACAUGAGGAUCACCCAUGUAGAUG [Mat - Exclusion 4 - Mod of JL - D24] (puzzle: Exclusion 4) | 0.0602 | 0.0308 | 0.0319 | – | – | –
AAGUGUGCCUAGGAUAUGUUCGGCCAAGGUCAUACAGAAGGAGGCACAUGAGGAUCACCCAUGUAGUGUCCUAC [Soququis] (puzzle: Exclusion 6) | – | 0.0596 | – | – | – | –
AGUAGUAGUAUCCGAUCUUACAUGAGGAUCACCCAUGUAUCUAGACGUGCACGCGAUGCUCGUCAGACUACCAGAUG [salish99_TOv1_r3_052] (puzzle: Sensor v3, turn-off variant 1) | 0.0493 | 0.0663 | 0.0601 | – | – | –
GCUAGGAGUGUGAGGAUAUGCUGUUCCUUGGAACAGCAGAAGGCACAUGAGGAUCACCCAUGUGAAGACCUAGC [Mat - Exclusion 4 - JL Mod - D3] (Eterna round: R97, puzzle: Brourd's mod of Exclusion 4) | – | – | – | 0.149 | 0.0245 | –
GGUUGGCGAGGAUAUACAUGAGGAUCACCCAUGUGAGAUAAAAAAGUGAGGAAGAAAAGUAGAAGGCGCUGACG [salish99_ex3_r3_010] (puzzle: Exclusion 3) | 1.14 | 0.0715 | 0.0851 | – | – | –
GUCAGCUCGUGAGGAUAUACAUGAGGAUCACCCAUGUGGUCAAUAGCAGCUUCGGCUGCAUACAUGUAGAAGGCACGAGCUGAC [ENG2/7-A1] (Eterna round: R96, puzzle: Exclusion NG 2) | – | – | – | 0.0597 | 0.0307 | 0.00959

Sequence | apparent KD of MS2 coat protein [1] [µM] | apparent KD of MS2 coat protein [2] [µM] | apparent KD of MS2 coat protein [3] [µM] | apparent KD of MS2 coat protein (input ligand: FMN 200 uM) [µM] | apparent KD of MS2 coat protein (input ligand: none) [µM] | apparent KD of MS2 coat protein [4] [µM]
AAUAAGGGAGGAUAUGCGGAACGGUUUGUUCUCAGUGAGGCACAUGAGGAUCACCCAUGUAGAAGGCCCGGCAA [Orinar] (Eterna round: R96, puzzle: Exclusion 2) | – | – | – | 0.0634 | 0.0174 | 0.0121
AAAUUCUGAGGAUAUCGAUGUUUGUACAUGAGGAUCACCCAUGUCCUUUUUAUUUUUUCCCGAGAAGGCAGUGUAU [JR_E5_Sub099] (puzzle: Exclusion 5) | – | 0.0366 | – | – | – | –
GUUGUGUGAGGAUAUGCCUGGCCGUGAGGCCAGAUUGGGUGGCAGAAGGUACAUGAGGAUCACCCAUGUACGGG [salish99_ex4_4_005] (Eterna round: R97, puzzle: Exclusion 4) | – | – | – | 0.0477 | 0.0475 | –
UAAAAUAGUGUGAGGAUAUGCUGGUCCUUGGAUCAGCAGAAGGCACAUGAGGAUCACCCAUGUAGUUAAUAAUA [Mat - Exclusion 4 - JL Mod - D25] (puzzle: Brourd's mod of Exclusion 4) | 0.196 | 0.0368 | 0.0344 | – | – | –
UUUGGUGUAGGAUAUACAUGAGGAUCACCCAUGUGCUCCUGCGAGUUCGAAUCCAAAGGUAGAAGGGCGCUAAU [Eternabot (L2) Solution 83] (Eterna round: R97, puzzle: Exclusion 3) | – | – | – | 0.0233 | 0.0212 | –
ACGCCAGGAGGAUAUGCAAUAAGUAACAUGAGGAUCACCCAUGUUCGGGCGAUGCUCGUGGCAGAAGGCCUAGCCG [Edteonra] (Eterna round: R97, puzzle: Exclusion 5) | – | – | – | 0.329 | 0.0361 | –
UUAAAUCAUGUAGGAUAUGCGUGGCGAAGCUAUGCAGAAGGACAUGAGGAUCACCCAUGUGCUGCGGUCUGCGUACAGAUCGCA [JL ENG1 1.06] (Eterna round: R96, puzzle: Exclusion NG 1) | – | – | – | 0.0876 | 0.307 | 0.259
AGAUGUAGAAACCGAUCCUACAUGAGGAUCACCCAUGUAGCAAGACGUGCACGCGAAGCUCGUCAGACUACCAGAAG [salish99_TOv1_r3_082] (puzzle: Sensor v3, turn-off variant 1) | 0.27 | 0.188 | 0.352 | – | – | –
AGUACUAUCACGAAAGUGAUAGUACAAUAAGCAAGUGAAACAUGAGGAUCACCCAUGUCCUCAUUUGCUCGUCUUAU [salish99_TOv2_r3_200again] (puzzle: Sensor v3, turn-off variant 2) | 0.0178 | 0.749 | 0.017 | – | – | –
UAGUUACAUGAGGAUCACCCAUGUGAGGAUAUGAGUCAGUCACGGUGACGUGGCUGACUCAGAAGGCACAAAGG [Mat - Exclusion 1 - JL Mod - D38] (Eterna round: R97, puzzle: Exclusion 1) | – | – | – | 0.43 | 0.126 | –
AUACCACGAGGAUAUCGUCUAUUUCACAUGAGGAUCACCCAUGUUAUCUUUGUUUUGUUUCGAGAAGGCGUGUUUU [JR_E5_Sub078] (puzzle: Exclusion 5) | – | 0.0281 | – | – | – | –
GAUUAUGCGAGCUUUAGGGACAUGAGGAUCACCCAUGUUCGUCUUAUUGGUCUGGGUACACUGACAUACCUAAAUCU [JMF 72] (puzzle: Sensor v3, turn-off variant 1) | 0.0339 | 0.0422 | 0.0324 | – | – | –
AGGGAGCGAGGAUAUACAGAGUAGGAAACUACUCCCUCAGUACAUGAGGAUCACCCAUGUAGAAGGCGCCCGAA [EX2 A.1] (Eterna round: R97, puzzle: Exclusion 2) | – | – | – | 0.038 | 0.0238 | –
AAUAACAGAGGAUAUACUAUUUUAUGUGUUUGUUGUUUUAAACAUGAGGAUCACCCAUGUAGAAGGCUGAAUGA [JMF 61] (puzzle: Exclusion 2) | – | 0.0238 | – | – | – | –
UCCGGGUUUGUAGGAUAUAGUCUGCUUUGCAGACUAGAAGGACAUGAGGAUCACCCAUGUUGUGGAAAUUUGGGAUGUUCCUUU [random2] (Eterna round: R96, puzzle: Exclusion NG 1) | – | – | – | 0.176 | 0.189 | 0.0274
GGGAUGUCAGGAUAUACAUGAGGAUCACCCAUGUAGAGAUAAGAUAGGGAAAGAGUAGGUAGAAGGGACGAGAG [JR_Exclu3_Sub044] (puzzle: Exclusion 3) | 0.022 | 0.0199 | 0.0245 | – | – | –
AUUUUAACAUAGGAUAUCGAAUUUAUUAUUUAACGAGAAGGAUGAACAUGAGGAUCACCCAUGUGGUAUCAUGG [JL-ex6-3.02] (puzzle: Exclusion 6) | – | 0.204 | – | – | – | –
